Test results published in IntAct's records for PubMed 23376919.

B1: Interleukin-1 receptor-associated kinase 3 (Mus musculus), Q8K4B2 (parent)
chain: MAGRCGARGALSPQLLLFDLPPALLGELCGILDSCDGPLGWRGLAERLSNSWLDVRHIEKYVNQGKSGTRELLWSWAQKNKTIGDLLEVLQDMGHQRAIHLIINYGVSWTPSVQTHHELPFPSFPPEVKHACRENDPGPLEPANVTVDNVLVPEHNEKGTLQKTPISFQSILEGTKHFHKDFLIGEGEIFEVYRVDIRNQAYAVKLFKQEKKMQLKKHWKRFLSELEVLLLFRHPHILELAAYFTETEKLCLVYPYMSNGTLFDRLQCTNGTTPLSWHVRISVLIGIAKAIQYLHNTQPCAVICGNVSSANILLDDQLQPKLTDFAAAHFRPNLEQQSSTINMTGGGRKHLWYMPEEYIRQGRLSVKTDVYSFGIVIMEVLTGCKVVLDDPKHVQLRDLLMELMEKRGLDSCLSFLDRKIPPCPRNFSAKLFSLAGRCVATKAKLRPTMDEVLSSLESTQPSLYFAEDPPTSLKSFRCPSPLFLDNVPSIPVEDDENQNNHSVPPKEVLGTDRVTQKTPFECSQSEVTFLGLDRNRGNRGSEADCNVPSSSHEECWSPELVAPSQDLSPTVISLGSSWEVPGHSYGSKPMEKRCSSGLFCSEHEQSKKQ
partner: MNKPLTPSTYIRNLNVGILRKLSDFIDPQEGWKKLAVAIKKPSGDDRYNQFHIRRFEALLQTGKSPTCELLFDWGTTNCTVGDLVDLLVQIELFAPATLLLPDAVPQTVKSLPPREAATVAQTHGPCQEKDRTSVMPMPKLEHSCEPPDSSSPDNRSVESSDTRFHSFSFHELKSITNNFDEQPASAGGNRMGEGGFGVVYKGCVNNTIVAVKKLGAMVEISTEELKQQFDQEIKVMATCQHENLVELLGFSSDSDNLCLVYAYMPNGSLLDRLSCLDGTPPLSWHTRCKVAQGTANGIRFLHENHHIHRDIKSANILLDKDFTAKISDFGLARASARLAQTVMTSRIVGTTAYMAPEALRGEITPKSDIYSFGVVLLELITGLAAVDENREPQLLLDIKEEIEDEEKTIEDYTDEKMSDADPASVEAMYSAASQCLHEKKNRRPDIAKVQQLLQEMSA
B2: Interleukin-1 receptor-associated kinase 4 (Mus musculus), Q8R4K2 (parent)
chain: B1 partner
partner: B1 chain
B3: Interleukin-1 receptor-associated kinase 3 (Mus musculus), Q8K4B2 (parent)
chain: B1 chain
partner: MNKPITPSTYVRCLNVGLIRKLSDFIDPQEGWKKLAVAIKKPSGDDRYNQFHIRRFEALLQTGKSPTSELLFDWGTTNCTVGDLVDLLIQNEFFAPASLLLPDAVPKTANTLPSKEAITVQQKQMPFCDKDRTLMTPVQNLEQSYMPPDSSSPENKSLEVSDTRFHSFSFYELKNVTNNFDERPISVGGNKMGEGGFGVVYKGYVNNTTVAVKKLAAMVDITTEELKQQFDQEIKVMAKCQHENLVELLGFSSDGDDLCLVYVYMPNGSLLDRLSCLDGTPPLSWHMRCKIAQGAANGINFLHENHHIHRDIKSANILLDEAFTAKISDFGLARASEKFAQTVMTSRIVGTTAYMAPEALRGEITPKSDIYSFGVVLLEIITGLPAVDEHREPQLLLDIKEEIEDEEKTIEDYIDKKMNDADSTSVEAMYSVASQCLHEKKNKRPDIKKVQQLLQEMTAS

Variants of: B1
Settings: with irak4_mouse Irak4, Q8R4K2

Row | Variant | effect of a mutation on the interaction
1 | W74A | disrupting interaction

Variants of: B1
Settings: with irak4_mouse Irak4, Q8R4K2
Remark: another data set of the same source

Row | Variant | effect of a mutation on the interaction
2 | E71A | decreasing interaction

Variants of: B1
Settings: with irak4_mouse Irak4, Q8R4K2
Remark: another data set of the same source

Row | Variant | effect of a mutation on the interaction
3 | Q78G | decreasing interaction

Variants of: B1
Settings: with irak4_mouse Irak4, Q8R4K2
Remark: another data set of the same source

Row | Variant | effect of a mutation on the interaction
4 | E71A;Q78G | disrupting interaction

Variants of: B2
Settings: with irak3_mouse Irak3, Q8K4B2

Row | Variant | effect of a mutation on the interaction
5 | MNKPLTPSTYIRNLNVGILRKLSDDIDPQEGWKKLAVAIKKPSGDDRYNQFHIRRFEALLQTGKSPTCELLFDWGTTNCTVGDLVDLLVQIELFAPATLLLPDAVPQTVKSLPPREAATVAQTHGPCQEKDRTSVMPMPKLEHSCEPPDSSSPDNRSVESSDTRFHSFSFHELKSITNNFDEQPASAGGNRMGEGGFGVVYKGCVNNTIVAVKKLGAMVEISTEELKQQFDQEIKVMATCQHENLVELLGFSSDSDNLCLVYAYMPNGSLLDRLSCLDGTPPLSWHTRCKVAQGTANGIRFLHENHHIHRDIKSANILLDKDFTAKISDFGLARASARLAQTVMTSRIVGTTAYMAPEALRGEITPKSDIYSFGVVLLELITGLAAVDENREPQLLLDIKEEIEDEEKTIEDYTDEKMSDADPASVEAMYSAASQCLHEKKNRRPDIAKVQQLLQEMSA [F25D] | decreasing interaction

Variants of: B3
Settings: with irak4_human IRAK4, Q9NWZ3

Row | Variant | effect of a mutation on the interaction
6 | W74A | disrupting interaction

Variants of: B3
Settings: with irak4_human IRAK4, Q9NWZ3
Remark: another data set of the same source

Row | Variant | effect of a mutation on the interaction
7 | E71A | decreasing interaction

Variants of: B3
Settings: with irak4_human IRAK4, Q9NWZ3
Remark: another data set of the same source

Row | Variant | effect of a mutation on the interaction
8 | Q78G | decreasing interaction

Variants of: B3
Settings: with irak4_human IRAK4, Q9NWZ3
Remark: another data set of the same source

Row | Variant | effect of a mutation on the interaction
9 | E71A;Q78G | decreasing interaction
